B1: SSAP_172: SEQ ID NO: 341; Staphylococcus pettenkoferi (protein, listed as Staphylococcus pettenkoferi)
chain: ATQKDFKNQISQKETQQKQEVQKKKKGPRQQVSDLLDRMAPEIEKALPNHLSADRMARVAMTAVSSNPKLLECDPKSFIGAVMQSAQLGLEPNTALGEAYLVPYAGKVNFQLSYLGLINLATRSGQYKAIYAHEVYAEDEFRYQYGLHKDLIHKPVDNPKGKPIGYYAVYHLLNGGYDFVYWTTERIQKHAKKYSFAVQKGYQSPWNDEFDAMAKKTVLKDLLKYAPKSIEMNNAVRSDDKQSELSDEGVVIDVTNYDEENGEEK
B2: SSAP_211: SEQ ID NO: 380; unclassified Streptomyces (protein, listed as Streptomyces sp.)
chain: SQIGNAIATRDEGPAAQIEVYRDEYAALVPSHVNADQWVRLAVGAIRGNDDLLKAAGNDIGLFLREMKTAARLGLEPGTEQFYLTPRKSKAHGGRPVIKGIVGYQGIVELIYRAGAASTVIVEAVRQNDVFRYVPGRDDRPVHEIDWFGQDRGPLVGVYAYAVMKDGAVSKVVVLNKARVMELKAKSDSKNSPYSPWNTNEEAMWLKSGVRQLAKWVPTSAEFRRDQLLAHTDTADGVIASVSAPPLPPQSAALEDLDPDDEGPIDGELLDD
B3: SSAP_6: SEQ ID NO: 175 (protein)
chain: STALATLAGKLAERVGMDSVDPQELITTLRQTAFKGDASDAQFIALLIVANQYGLNPWTKEIYAFPDKQNGIVPVVGVDGWSRIINENQQFDGMDFEQDNESCTCRIYRKDRNHPICVTEWMDECRREPFKTREGREITGPWQSHPKRMLRHKAMIQCARLAFGFAGIYDKDEAERIVENTAYTAERQPERDITPVNDETMQEINTLLIALDKTWDDDLLPLCSQIFRRDIRASSELTQAEAVKALGFLKQKATEQKVAA
B4: SSAP_193: SEQ ID NO: 362; Mesotoga sp. TolDC (protein, listed as Mesotoga sp.)
chain: KASEIASMVKKEDERRNHKPDPLAGIVKNLTSIKGEIANALPDAGITPERMIRIVVTLLRQNKSLAEAAMQNPASLLGAVMMAAQLGLDPTNGLDQCALVPRKGKVCFDIMYEGLVELGYRSDRMESIVARTVYEKDTFSLKYGLNEELVHIPYLDGDPGESKGYYMVGKLKGGGNIIVYMTKEQVHKIRDRYSVAYKAGLSGSRKDSPWFTSEDRMGEKTVVKAGFRWIPKSPIIRTALALDETAREASRLPMRN
B5: SSAP_197: SEQ ID NO: 366; Arsenophonus sp. ENCA (protein, listed as Arsenophonus sp.)
chain: NTELETMNNVYDNLQSVIMQQGIAALLPAQVTPEQFTRTAATALIENVDLQNADKQSLVLALTRCAKDGLMPDGREAALVVRSTKVNKQFVKKAVYMPMVDGVIKRARQSGQVANIIAKVVYSQDEFEYVIDENGEHLTHRPAFVDGDDIVKVYAFAKLNSGELVVEVMSRAGVEKIRDTVQSAKYDSSPWVKWFDRMALKTVIHRLARRLPCASELFSLFEVYEDANSTEKTLRMAPASFKRLSIN
B6: SSAP_16: SEQ ID NO: 185 (protein)
chain: MAKENYSDPNGKLLNSITTFEVNGEEVKLSGNIIRDYLVSGNAEVTDQEIIMFLQLCKYQKLNPFLNEAYLVKFKNTKGPDKPAQIIVSKEAFMKRAETHEQYDGFEAGVIVERGGEIIELEGAVSLASDKLLGGWAKVFRKDRNRPVSVRISEKEFNKRQSTWNTMPLTMMRKTAVVNAMREAFPDNLGAMYTEEEQGSLQNTETSVQQEIKQNANAEVLDIPSQQNEVPDFKEVREPEHVEMPPIYGEQQSTPPARPY
B7: SSAP_305: SEQ ID NO: 474 in b312 (Table 9 prints 424); Clostridium akagii (protein, listed as Clostridium akagii)
chain: ATSESLKNQLVNKETRPPKDPFKALVYSAGIKKRFEDMLDKQANGFITSLLNLKQDKLKSCDDFTVLGSALKAAALKLPIDPNLGFAWIIPFKNHGKLEAQFQIGYKGFIQMAQRSGQYKKLNVTEIYEGQLKSFNPLTEEIVLDLDNIKSDLRKINKRYLIVMRMNLLALHLRKISKG
B8: SSAP_262: SEQ ID NO: 431; YqaK Schleiferilactobacillus shenzhenensis LY-73 (protein, listed as Schleiferilactobacillus shenzhenensis)
chain: SAVSESKDLQHVDQLSVLNSAMTAASLNLPINQNLGFFYLVPYKGIAQAQMGYKGYIQLAQRSGQYQRLNAIPVYADEFGSWNPLTEELDYTPHFEDRKASDKPVGYVGFFKLANGFEKTVYWSRKQIEAHRDRFSKSSKSSASPWNTDFDAMALKTVLRNLITKWGPMTTDIQRANDADEGDYKNDLSTDTSEPKDVTPGASLEQFLGETDQQQKPATKPAPKKKAEEAKPNDLKPDVTHDPNEHTEQTSLSDDDLPFD
B9: SSAP_235: SEQ ID NO: 404; Streptomyces sp. adm13(2018) (protein, listed as Streptomyces sp.)
chain: SQIGNEIARQSHSPAAIIEQHKADLAVVAASHVRVDTFARLAVGVLRQNEKLAAAAANNPGSLMSALMTAARLGLEPGTEQFYLRPIKRKGQLEVQGIVGYQGIVELIYNAGAAQSVVVEVVRARDEFAWTPGALDEHRPPRWPGAMKQPHHKVDWFGDRGPLVGAYAYAVMQGGAISKVVVLNRDHIARAKAKSDGADTDYSPWRTDEEAMWLKTAARRLGKWVPTSAEKRTGVIERLDTPPAPLNEIDPDEDDEPIDGELVD

Tests used:
Assay type in all cases: cell-based
[1] = system: endogenous genome targets (ACTB, HSP90AA1); assay: Arrayed SSAP library screening, mKate knock-in assay (editing efficiency); settings: average of HSP90 and ACTB, 3 days after transfection; for Editing Efficiency (Normalized, Average, two targets): fold over negative control (Flag_HA); for Editing Efficiency (Absolute, Average, two targets): percent of mKate knock-in
Experimental: Arrayed SSAP library screening on endogenous genome targets (ACTB. HSP90AA1) using mKate knock-in assay.
SSAP-encoding plasmids were purified and quantified.
(§1) Each SSAP encoding plasmid was tested in duplicate, including a negative control (same plasmid encoding Flag_HA which is not expected to promote gene editing). Transfections were in 96-well plates and transfection efficiency was estimated to be 50%.
(§2) Three days after transfection, mKate positive cells and cell viability were quantified across all replicates, along with positive (original RecT SSAP) and negative (Flag-HA control protein) controls. […] At the same time, the cell viability was measured by live cell counts via flow cytometry, to help quantify the fitness effect of SSAP on mammalian cells.
(§3) SSAP proteins are identified by Uniparc deposit number and SEQ ID NO. Alignment numbers correspond to SSAPs in FIGS. 58, 59, and 60.

gene editing with dCas9 = assay: Screen of 322 new SSAP proteins, gene editing activity with dCas9 (Table 5); set-up: dCas9 with SSAP activity: scale not given here
In short: (§4)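 Read-out is gene editing activity. Candidates come from sequence data mining, are made synthetically, and are tested alongside either nuclease-active Cas9 or catalytically dead dCas9.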

mammalian cells = assay: Arrayed SSAP library screening, cell viability by live cell counts via flow cytometry
Experimental: as §1, §2, §3

[2] = system: gene editing with Cas9 and dCas9; assay: Screen of 322 new SSAP proteins, activity across all experiments (Cas9 and dCas9, Table 5); set-up: scale not given here
In short: as §4

gene editing with Cas9 = assay: Screen of 322 new SSAP proteins, gene editing activity with Cas9 (Table 5); set-up: Cas9 with SSAP activity: scale not given here
In short: as §4

Molecule | Editing Efficiency (Normalized, Average, two targets) [1] | Editing Efficiency (Absolute, Average, two targets) [1] | dCas9 with SSAP activity (gene editing with dCas9) | dCas9 with SSAP activity (normalized) (gene editing with dCas9) | Cell Viability (Average, two targets) (mammalian cells) | Activity across all experiments [2] | Cas9 with SSAP activity (gene editing with Cas9) | Cas9 with SSAP activity (normalized) (gene editing with Cas9)
B1 | 4.239 | 10.4925 | −5.287 | −0.724 | 0.9046 | −3.822 | −2.356 | −0.702
B2 | 5.517 | 13.65 | −5.365 | −0.904 | 0.3563 | −1.297 | 2.771 | 4.679
B3 | 4.879 | 12.075 | −5.703 | −1.399 | 1.282 | −6.879 | −8.056 | 
B4 | 5.034 | 12.465 | −5.951 | −1.083 | 1.147 | −3.196 | −0.442 | −0.140
B5 | 5.661 | 14.025 | −6.622 | −1.370 | 1.021 | −4.703 | −2.785 | −1.134
B6 | 8.461 | 20.95 | −5.666 | −1.047 | 1.146 | −3.262 | −0.858 | −0.452
B7 | 4.612 | 11.425 | −6.032 | −1.721 | 0.5578 | −2.644 | 0.745 | 0.408
B8 | 3.676 | 9.1025 | −6.590 | −1.417 | 1.122 | −4.769 | −2.947 | −0.511
B9 | 4.251 | 10.53 | −5.457 | −1.152 | 0.8847 | −5.237 | −5.016 | −0.970

From patent publication US20250034594A1, “RNA-GUIDED GENOME RECOMBINEERING AT KILOBASE SCALE” (THE BOARD OF TRUSTEES OF THE LELAND STANFORD JUNIOR …, priority 2021, published 2025)
